# Article PMC7939381, “MMP activation–associated aminopeptidase N reveals a bivalent 14-3-3 binding motif” (The Journal of Biological Chemistry, 2021)
# Legend:
# [1] = target: 14-3-3σ (stratifin, SFN) (UniProt P31947); test: direct fluorescence polarisation titration; settings: reference: peptide 7 (pS43 only)
# [2] = target: 14-3-3β/α (UniProt P31946); test: direct fluorescence polarisation titration; settings: reference: peptide 7 (pS43 only)
# [3] = target: 14-3-3η (UniProt Q04917); test: direct fluorescence polarisation titration; settings: reference: peptide 7 (pS43 only)
# [4] = target: fluorescently labeled peptide 11, APN 36–73 pSer43 pThr63 (human) (UniProt P15144); test: fluorescence polarisation; direct binding: dilution series of 14-3-3 protein added to FITC-labeled peptide (30 nM stock, 5 µl in 15 µl); 10 mM HEPES pH 7.4, 150 mM NaCl, 2 mM DTT, 0.01% Tween 20; 60 min at room temperature, read at 25 °C; four-parameter fit
# [5] = target: fluorescently labeled peptide 7, APN 36–73 pSer43 (human) (UniProt P15144); test: as above
# [6] = target: peptide 11, APN 36–73 pSer43 pThr63, as used in ITC and co-crystallisation (human) (UniProt P15144); test: ITC; 14-3-3η (500 µM; 250 µM for peptide 11) titrated into peptide (50 µM; 12.5 µM for peptide 11), 18 injections; 50 mM HEPES pH 7.4, 250 mM NaCl, 20 mM MgCl2; 25 °C
# [7] = target: peptide 7, APN 36–73 pSer43, as used in ITC (human) (UniProt P15144); test: as above
# Chain of peptide 7, APN 36–73 pSer43, as used in ITC (human) (P15144 36-73): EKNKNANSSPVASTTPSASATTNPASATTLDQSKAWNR
# Chain of peptide 11, APN 36–73 pSer43 pThr63, as used in ITC and co-crystallisation (human) (P15144 36-73): as above
# Chain of fluorescently labeled peptide 11, APN 36–73 pSer43 pThr63 (human) (P15144 36-73): as above
# Chain of fluorescently labeled peptide 7, APN 36–73 pSer43 (human) (P15144 36-73): as above
substance,measurement,setting,value
"Aminopeptidase N (APN, CD13) 36-73 (from UniProt P15144) peptide 12 (pS43 pT64)",binding against the reference,[1]; sites T64,stronger
same,binding against the reference,[2]; sites T64,stronger
same,binding against the reference,[3]; sites T64,stronger
"Aminopeptidase N (APN, CD13) 36-73 (from UniProt P15144) peptide 11 (pS43 pT63)",binding against the reference,[1]; sites T63,stronger
same,binding against the reference,[2]; sites T63,stronger
"Aminopeptidase N (APN, CD13) 36-73 (from UniProt P15144) peptide 10 (pS43 pS61)",binding against the reference,[1]; sites S61,stronger
same,binding against the reference,[2]; sites S61,stronger
same,binding against the reference,[3]; sites S61,stronger
"14-3-3η, full length, N-terminally His6-tagged (from UniProt Q04917 1-246) (natural protein)",Kd,[4],0.046 µM
same,Kd,[5],24 µM
same,Kd,[6],0.14 µM
same,stoichiometry N,[6],0.58
same,Kd,[7],40.7 µM
same,stoichiometry N,[7],1.13
